Measured values published in US10253089B2, “Matrix metalloproteinase cleavable protein polymers for cancer gene therapy” (The University of Utah Research Foundation, priority 2012, dated 2019).

Experiments:
[1] = 12 week subchronic toxicity study; format: in vivo, CD-1 immunocompetent mice
Method: Mice were anesthetized and maintained under anesthesia with 3% isofluorane in oxygen. After shaving and cleaning the injection site with 60% isopropanol, mice were subcutaneously injected in the right flank with 50 μl of solution using a 250 μl Hamilton syringe with a 26G needle. […] The injection site was gently clamped for 10 seconds to prevent leakage, after which mice were returned to their cages. For consistency, the day of viral injection was defined as day 0.
For treatment groups, a suspension of 1 mg GCV (Sigma Aldrich, St. Louis, Mo.) per ml of 0.9% physiological saline was prepared and sterilized through a 0.22 μm filter. Each day, animal weights were recorded, injection sites cleaned with 60% isopropanol, and mice injected i.p. with 1 mg/ml GCV suspension through a 26G needle sufficient for a total dose of 25 mg/kg body weight. Average dosing volume for these studies was approximately 0.6 ml. Mice were injected daily for the first four weeks of the 12 week recovery study, and for the entirety of the 1, 2, and 4 week studies.
The results for the 12 week subchronic toxicity study (FIG. 18) reveal many interesting points about SELP and its ability to improve the Ad.HSVtk/GCV toxicity profile. […]

[2] = target: T1, MMP-9 (Homo sapiens, UniProt P14780); test: Hydrogel protein loss in the presence of MMP-9; format: biochemical; conditions: 10 wt % hydrogel, MMP-9 10 nM, two weeks
T1 sequence (P14780 94-707): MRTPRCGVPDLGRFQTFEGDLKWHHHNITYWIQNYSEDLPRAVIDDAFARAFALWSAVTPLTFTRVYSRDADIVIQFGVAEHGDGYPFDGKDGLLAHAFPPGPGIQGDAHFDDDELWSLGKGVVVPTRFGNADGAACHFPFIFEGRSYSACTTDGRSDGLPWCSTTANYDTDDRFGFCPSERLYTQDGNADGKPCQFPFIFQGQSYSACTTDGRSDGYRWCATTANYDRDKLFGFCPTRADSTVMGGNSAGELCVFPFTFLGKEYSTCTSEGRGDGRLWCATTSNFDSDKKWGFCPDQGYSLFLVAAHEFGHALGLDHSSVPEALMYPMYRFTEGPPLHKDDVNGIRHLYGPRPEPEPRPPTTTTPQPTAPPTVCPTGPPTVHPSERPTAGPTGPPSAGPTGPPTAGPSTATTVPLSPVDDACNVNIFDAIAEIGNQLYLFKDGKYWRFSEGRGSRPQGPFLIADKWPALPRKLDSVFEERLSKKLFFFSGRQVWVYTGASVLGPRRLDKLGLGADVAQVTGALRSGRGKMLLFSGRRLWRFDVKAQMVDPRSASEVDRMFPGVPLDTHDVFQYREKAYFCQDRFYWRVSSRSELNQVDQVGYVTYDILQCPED
Method: (§1) The properties of hydrogels formed from SELPs are strongly dependent on the shear applied to liquid solutions of polymer prior to gelation. SELPs solubilized in phosphate buffered saline were loaded into a 1 ml luer-lock syringe connected at the hub to another 1 ml luer-lock syringe via two 27G needles, joined by a section of 0.0155″ HPLC tubing. The SELP solution was passed through this device at maximum hand pressure for five full bidirectional cycles, at which point it was used for studies.
(§2) Hydrogels were characterized for their sensitivity to MMP degradation in the context of protein loss from the gel, changes in mechanical properties, and release of model 100 nm fluorescent nanoparticles. […] Syringes were sealed with Parafilm and allowed to gel upright overnight at 37° C. […]
(§3) Protein loss was quantified using a Modified Lowry Assay Kit, and using known SELP solutions for the standard curve instead of the supplied bovine serum albumin, as SELP contains few Lowry-reactive amino acids. The mechanical properties of SELPs were evaluated in cyclic compression at 1 Hz and 1% strain, with ˜10 grams of preloading applied for 10 minutes to eliminate stress relaxation. Stress was measured using a 2 lb load cell. Release was quantified by measuring the fluorescence of release samples with an excitation/emission of 260/515. […]

[3] = target: T1, MMP-9; test: Enzymatic digest of polymer by MMP-9, SDS-PAGE; format: biochemical; conditions: 1 mg/ml polymer, 10 nM and 40 nM MMP-9, 2-48 hours, room temperature
Method: This buffer recipe is sourced from the Molecular Probes EnzChek Gelatinase/Collagenase Assay Kit (Invitrogen, Carlsbad, Calif.), which was used to confirm the activity of MMP-2 and MMP-9 prior to use. 2× Laemmli Buffer was supplemented with 5% β-mercaptoethanol and added 1:1 by volume to the polymer solutions, which were then placed in a PCR thermal cycler and heated to 95° C. for five minutes to denature the protein. 25 μl of each sample was added to 4-15% Bis-Tris precast PAGE gel and electrophoresis was performed at 200V until the dye front reached the bottom of the gel, approximately 30 minutes. Kaleidoscope protein standard was used as a molecular weight marker. Following electrophoresis, gels were stained with GelCode Blue (colloidal Coomassie formulation) following manufacturer's instructions for staining and destaining.
100 μl samples of each polymer were digested with a final concentration of 10 nM and 40 nM MMP-2 or MMP-9. MMP samples were incubated at room temperature for 2, 4, 12, 24, 36, and 48 hours and samples were run on PAGE gels and stained with GelCode Blue to visualize band patterns corresponding to protein degradation.
Additionally, this digestion is dependent on both time of exposure and concentration of MMP.

[4] = target: T2, MMP-2 (Homo sapiens, UniProt P08253); test: Hydrogel protein loss in the presence of MMP-2; format: biochemical; conditions: 10 wt % hydrogel, MMP-2 10 nM, two weeks
T2 sequence (P08253 110-660): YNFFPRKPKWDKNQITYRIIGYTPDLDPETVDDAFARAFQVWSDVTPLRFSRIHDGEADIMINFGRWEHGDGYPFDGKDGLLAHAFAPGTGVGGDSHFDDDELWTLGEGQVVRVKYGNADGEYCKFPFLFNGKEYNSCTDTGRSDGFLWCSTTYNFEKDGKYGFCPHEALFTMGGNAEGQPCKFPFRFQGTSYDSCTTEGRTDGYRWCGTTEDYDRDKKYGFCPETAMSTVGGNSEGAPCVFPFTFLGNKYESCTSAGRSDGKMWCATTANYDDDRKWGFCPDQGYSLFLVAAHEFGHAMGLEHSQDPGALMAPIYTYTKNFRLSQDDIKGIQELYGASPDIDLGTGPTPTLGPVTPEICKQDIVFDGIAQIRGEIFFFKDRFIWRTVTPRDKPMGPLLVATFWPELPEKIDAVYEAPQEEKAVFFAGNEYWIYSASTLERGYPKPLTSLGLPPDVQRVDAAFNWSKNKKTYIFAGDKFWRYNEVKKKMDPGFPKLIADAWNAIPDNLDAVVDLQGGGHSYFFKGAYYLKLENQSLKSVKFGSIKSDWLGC
Method: as §1, §2, §3

B1: SELP815K: silk-elastin-like protein polymer, longer silk units, fifteen elastin units, lysine elastin unit; monomer repeated 6 times (SEQ ID NO. 21) (protein)
chain: MDPVVLQRRDWENPGVTQLNRLAAHPPFASDPMGAGSGAGAGSGAGAGSGVGVPGVGVPGVGVPGVGVPGKGVPGVGVPGVGVPGVGVPGVGVPGVGVPGVGVPGVGVPGVGVPGVGVPGVGVPGVGVPGAGAGSGAGAGSGAGAGSGAGAGSGAGAGSGAGAGAGSGAGAGSGAGAGSGVGVPGVGVPGVGVPGVGVPGKGVPGVGVPGVGVPGVGVPGVGVPGVGVPGVGVPGVGVPGVGVPGVGVPGVGVPGVGVPGAGAGSGAGAGSGAGAGSGAGAGSGAGAGSGAGAGAGSGAGAGSGAGAGSGVGVPGVGVPGVGVPGVGVPGKGVPGVGVPGVGVPGVGVPGVGVPGVGVPGVGVPGVGVPGVGVPGVGVPGVGVPGVGVPGAGAGSGAGAGSGAGAGSGAGAGSGAGAGSGAGAGAGSGAGAGSGAGAGSGVGVPGVGVPGVGVPGVGVPGKGVPGVGVPGVGVPGVGVPGVGVPGVGVPGVGVPGVGVPGVGVPGVGVPGVGVPGVGVPGAGAGSGAGAGSGAGAGSGAGAGSGAGAGSGAGAGAGSGAGAGSGAGAGSGVGVPGVGVPGVGVPGVGVPGKGVPGVGVPGVGVPGVGVPGVGVPGVGVPGVGVPGVGVPGVGVPGVGVPGVGVPGVGVPGAGAGSGAGAGSGAGAGSGAGAGSGAGAGSGAGAGAGSGAGAGSGAGAGSGVGVPGVGVPGVGVPGVGVPGKGVPGVGVPGVGVPGVGVPGVGVPGVGVPGVGVPGVGVPGVGVPGVGVPGVGVPGVGVPGAGAGSGAGAGSGAGAGSGAGAGSGAGAGSGAGAMDPGRYQDLRSHHHHHH
modifications: monomer repeated 6 times; Hybrid of Homo sapein and Bombyx mori
For B1, the “toxicity conclusion of the statistical comparison” value ([1]; 12 week study, comparison named in the table line) was “SELP itself is not toxic in”, the “p (ANOVA and Bonferroni post-test) Vs Control” value ([1]; 12 week subchronic toxicity study) was “p > .05” and the “higher protein loss compared to control” value [2] was “statistically insignificant”. For the same molecule, the “digestion by MMP-9” value [3] was “is not” and the “higher protein loss compared to control” value [4] was “statistically insignificant”.
